Data set [1] has as its system Saccharomyces cerevisiae. As to the kind of experiment: protein stability index of tFT-peptide fusion in wild type (PSI (0-1 scale)); higher = more stable (slower turnover). To be noted: genetic background: wild type.
Data set [2] relates to Saccharomyces cerevisiae. As to the kind of experiment: protein stability index of tFT-peptide fusion in deletion strain of DOA10 (PSI (0-1 scale)); higher = more stable (slower turnover). The procedure: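 MPS profiling in S. cerevisiae of two library types built from selected 12-aa C-degron peptides (IN1, IN2, LN1, LN3, VN2, R1-R5, W1-W3, Atg1 and Rpa12 C-termini): saturation mutagenesis libraries and C-terminal +1 capping libraries (13 aa). Each peptide is fused to the C-terminus of a sfGFP-mCherry timer, after a GGGS linker. Cells are FACS-sorted into 8 mCherry/sfGFP bins and sequenced. PSI runs from 0 (unstable) to 1 (stable), measured once in wild type and in the das1Δ or doa10Δ background.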
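For protein stability index of tFT-peptide fusion in deletion strain of DOA10 in this document: PSI per variant is the weighted mean of its sequencing read distribution over the sorted stability bins, counting only variants with over 10 reads summed across bins.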
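For protein stability index of tFT-peptide fusion in wild type in this document: PSI derived as read-weighted mean over the 8 sorting bins, only variants exceeding 10 total reads kept, mCherry placed adjacent to the peptide and sfGFP distal.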

On to RVTRLDAIYERI, for which the protein stability index amounted to 0.67 in the data set with Saccharomyces cerevisiae [1] and 0.708 in the data set with Saccharomyces cerevisiae [2].

Turning to RVTRLDAIYFHI, the protein stability index came out at 0.491 in the data set on Saccharomyces cerevisiae [1] and 0.527 in the data set with Saccharomyces cerevisiae [2].

Take RVTRLDAIYFNI: the values for the protein stability index with Saccharomyces cerevisiae [1] and in the data set on Saccharomyces cerevisiae [2] were 0.572 and 0.703, respectively.

With RVTRLDAIYFRE, the protein stability index worked out at 0.676 in the data set on Saccharomyces cerevisiae [1] and 0.725 in the data set with Saccharomyces cerevisiae [2].

Consider RVTRLDAIYFRIR, for which the values for the protein stability index in the data set with Saccharomyces cerevisiae [1] and with Saccharomyces cerevisiae [2] were 0.589 and 0.717, respectively.

For RVTRLDAIYFRN, the protein stability index with Saccharomyces cerevisiae [1] came out at 0.6; in the data set on Saccharomyces cerevisiae [2] it was 0.676.

In the case of RVTRLDAIYFRV, the protein stability index in the data set with Saccharomyces cerevisiae [1] was 0.342; in the data set on Saccharomyces cerevisiae [2], 0.63.

Consider RVTRLDAIYFTI, for which the protein stability index with Saccharomyces cerevisiae [1] was 0.548; in the data set on Saccharomyces cerevisiae [2] it was 0.64.

As for RVTRLDAIYFWI, the protein stability index with Saccharomyces cerevisiae [1] worked out at 0.523; in the data set on Saccharomyces cerevisiae [2] it was 0.561.

Turning to RVTRLDAIYKRI, the protein stability index in the data set on Saccharomyces cerevisiae [1] worked out at 0.667; in the data set on Saccharomyces cerevisiae [2], 0.698.

Consider RVTRLDAIYLRI, for which the figures for the protein stability index in the data set with Saccharomyces cerevisiae [1] and in the data set on Saccharomyces cerevisiae [2] were 0.302 and 0.704, respectively.

Consider RVTRLDANYFRI, for which the protein stability index in the data set with Saccharomyces cerevisiae [1] stood at 0.689; in the data set on Saccharomyces cerevisiae [2] it was 0.716.

For the sequence RVTRLDAYYFRI, the protein stability index was 0.609 in the data set with Saccharomyces cerevisiae [1] and 0.714 in the data set with Saccharomyces cerevisiae [2].

Take RVTRLDLIYFRI: the protein stability index amounted to 0.224 in the data set with Saccharomyces cerevisiae [1] and 0.654 with Saccharomyces cerevisiae [2].

Turning to RVTRLDPIYFRI, the protein stability index with Saccharomyces cerevisiae [1] came out at 0.462; in the data set with Saccharomyces cerevisiae [2], 0.707.

Regarding RVTRLNAIYFRI, the protein stability index in the data set on Saccharomyces cerevisiae [1] is 0.229; in the data set with Saccharomyces cerevisiae [2], 0.496.

As for RVTRPDAIYFRI, the protein stability index with Saccharomyces cerevisiae [1] worked out at 0.34; in the data set on Saccharomyces cerevisiae [2] it was 0.706.

In the case of RVVRLDAIYFRI, the protein stability index was 0.399 in the data set on Saccharomyces cerevisiae [1] and 0.65 in the data set on Saccharomyces cerevisiae [2].

Take YSLRVLLPLYFR: the protein stability index was 0.244 in the data set on Saccharomyces cerevisiae [1] and 0.632 in the data set on Saccharomyces cerevisiae [2].

The values above are taken from the supplement of paper PMC10724198.
